These results are taken from publication PMC9908889.

pKd: −log10 of the molar value.

Data set [1] concerns MORF WH2 (Homo sapiens). Nature of the data set: EMSA. The following applies: EMSA: 20-25 mM Tris-HCl pH 7.5, 20-150 mM NaCl, 0-0.2 mM EDTA, 0-5 mM DTT, 0-20% glycerol, 4 C, NCP197 EMSA: 10 mM Tris, 1 mM EDTA, 10 mM NaCl, 1 mM TCEP, FP: …. (In general: Mobility shift assays separate free from complexed probe on a gel.)
The target in data set [2] is T1, MORF WH1 (Homo sapiens) (UniProt Q8WYB5).
T1 sequence: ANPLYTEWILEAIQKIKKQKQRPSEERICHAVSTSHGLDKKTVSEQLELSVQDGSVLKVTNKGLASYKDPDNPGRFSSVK
Nature of the data set: EMSA. The following applies: His-tagged; EMSA: 20-25 mM Tris-HCl pH 7.5, 20-150 mM NaCl, 0-0.2 mM EDTA, 0-5 mM DTT, 0-20% glycerol, 4 C; NCP197 EMSA: 10 mM Tris, 1 mM EDTA, 10 mM NaCl, 1 mM TCEP; FP: ….

The subject of data set [3] is MORF WH2 (Homo sapiens). Nature of the data set: fluorescence polarization. The following applies: EMSA: 20-25 mM Tris-HCl pH 7.5, 20-150 mM NaCl, 0-0.2 mM EDTA, 0-5 mM DTT, 0-20% glycerol, 4 C, NCP197 EMSA: 10 mM Tris, 1 mM EDTA, 10 mM NaCl, 1 mM TCEP, FP: …. Background: In fluorescence polarisation assays a small probe gives low polarisation when free and higher when bound to something large.

In data set [4] the target is T2, MORF WH1-WH2 (Homo sapiens) (UniProt Q8WYB5).
T2 sequence: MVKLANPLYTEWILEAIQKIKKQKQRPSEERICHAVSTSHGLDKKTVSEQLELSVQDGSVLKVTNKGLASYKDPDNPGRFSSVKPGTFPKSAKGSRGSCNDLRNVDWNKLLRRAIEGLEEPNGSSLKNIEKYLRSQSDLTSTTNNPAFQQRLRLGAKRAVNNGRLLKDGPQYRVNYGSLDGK
Nature of the data set: fluorescence polarization. The following applies: EMSA: 20-25 mM Tris-HCl pH 7.5, 20-150 mM NaCl, 0-0.2 mM EDTA, 0-5 mM DTT, 0-20% glycerol, 4 C; NCP197 EMSA: 10 mM Tris, 1 mM EDTA, 10 mM NaCl, 1 mM TCEP; FP: ….

The target in data set [5] is T1, MORF WH1 (Homo sapiens). Nature of the data set: fluorescence polarization. The conditions noted are these: EMSA: 20-25 mM Tris-HCl pH 7.5, 20-150 mM NaCl, 0-0.2 mM EDTA, 0-5 mM DTT, 0-20% glycerol, 4 C; NCP197 EMSA: 10 mM Tris, 1 mM EDTA, 10 mM NaCl, 1 mM TCEP; FP: ….

What is called pKd is the Kd on a negative log10 scale, so that one unit is a factor of ten.

The substance C-DNA15 (15 bp C-rich) had a pKd in the data set with MORF WH2 (Homo sapiens) [1] of 4.74.

In the data set with MORF WH1 (Homo sapiens) [2], CpG-DNA16 gave a negative logarithm of the Kd (pKd) of 5.70.

Consider NCP207, for which the K half worked out at 1400 nM with MORF WH2 (Homo sapiens) [3] (text says NCP187, source data and Methods say NCP207); 7 nM in data set [4]; 0.3 µM in the data set with MORF WH1 (Homo sapiens) [5].

DNA147 (601 Widom): the figures for the K half (in data set [4]; in the data set with MORF WH1 (Homo sapiens) [5]) were 62 nM and 15 µM, respectively.

In the case of NCP147, the values for the K half (in the data set with MORF WH2 (Homo sapiens) [3]; in data set [4]; in the data set with MORF WH1 (Homo sapiens) [5]) were 1000 nM, 12 nM and 9 µM, respectively.

Substance A-DNA15 (15 bp A-rich) had a pKd in the data set with MORF WH2 (Homo sapiens) [1] (source data name GST-MORF WH2) of 5.11.
